Data from US20040254099A1, “Compounds and methods for modulating beta-catenin mediated gene expression” (Adherex Technologies, Inc., priority 1999, published 2004).

System: retinoic acid receptor
Assay: Retinoic acid receptor dependent transactivation (retinoic acid β promoter-luciferase reporter)
Assay type: cell-based
Details: MCF-7 breast cancer cells transfected with reporter plasmid and wild-type or stable (S37A) mutant β-catenin; 9-cis retinoic acid, various doses, 48 hours
Protocol: FIG. 1 is a histogram depicting the enhancement of retinoic acid receptor-dependent transactivation by β-catenin. Luciferase activity, shown in relative light units, is illustrated for MCF-7 breast cancer cells transfected with the retinoic acid β promoter-luciferase reporter plasmid and a wild-type or a stable (S37A) mutant form of β-catenin (or vector alone, as a control) and treated with the indicated doses of 9-cis retinoic acid for 48 hours.
MCF-7 breast cancer cells were transfected with the retinoic acid β promoter-luciferase reporter plasmid and a wild-type or a stable (S37A) mutant form of β-catenin (see Orford et al., J. Biol. Chem. 272:24735-24738, 1997), and treated with various doses of 9-cis retinoic acid for 48 hours. The results, presented in FIG. 1, illustrate the activity of the reporter, measured in relative light units.

B1: β-catenin: cytoplasmic protein, expressed in cells by transfection as wild-type or stable (S37A) mutant form (protein, UniProt P35222 2-781, looked up)
Catenin beta-1: ATQADLMELDMAMEPDRKAAVSHWQQQSYLDSGIHSGATTTAPSLSGKGNPEEEDVDTSQVLYEWEQGFSQSFTQEQVADIDGQYAMTRAQRVRAAMFPETLDEGMQIPSTQFDAAHPTNVQRLAEPSQMLKHAVVNLINYQDDAELATRAIPELTKLLNDEDQVVVNKAAVMVHQLSKKEASRHAIMRSPQMVSAIVRTMQNTNDVETARCTAGTLHNLSHHREGLLAIFKSGGIPALVKMLGSPVDSVLFYAITTLHNLLLHQEGAKMAVRLAGGLQKMVALLNKTNVKFLAITTDCLQILAYGNQESKLIILASGGPQALVNIMRTYTYEKLLWTTSRVLKVLSVCSSNKPAIVEAGGMQALGLHLTDPSQRLVQNCLWTLRNLSDAATKQEGMEGLLGTLVQLLGSDDINVVTCAAGILSNLTCNNYKNKMMVCQVGGIEALVRTVLRAGDREDITEPAICALRHLTSRHQEAEMAQNAVRLHYGLPVVVKLLHPPSHWPLIKATVGLIRNLALCPANHAPLREQGAIPRLVQLLVRAHQDTQRRTSMGGTQQQFVEGVRMEEIVEGCTGALHILARDVHNRIVIRGLNTIPLFVQLLYSPIENIQRVAAGVLCELAQDKEAAEAIEAEGATAPLTELLHSRNEGVATYAAAVLFRMSEDKPQDYKKRLSVELTSSLFRTEPMAWNETADLGLDIGAQGEPLGYRQDDPSYRSFHSGGYGQDALGMDPMMEHEMGGHHPGADYPVDGLPDLGHAQDLMDGLPPGDSNQLAWFDTDL
In the case of B1, the “activity of the reporter (luciferase activity, relative light units)” value is reported as “augment the activity of the reporter”.
